Assay [1] concerns the target mCherry-(s)-CENP-N (human) (UniProt Q96H22). The assay can be described thus: dual color fluorescence cross-correlation spectroscopy (DC-FCCS); EGFP and mCherry fusion proteins co-expressed in living interphase HEp-2 or U2OS cells; spots in the nucleoplasm free of kinetochores, focal volume bleached before; 37°C; 488 and 561 nm; corrected values are the measured ones times about two.

Assay [2] concerns the target Spc24/Spc25 137-197+129-224 (Homo sapiens) (UniProt Q8NBT2). The note with it: cited from earlier work.
Assay [3] deals with mCherry-(s)-CENP-I (human) (UniProt Q92674). The assay can be described thus: dual color fluorescence cross-correlation spectroscopy (DC-FCCS); EGFP and mCherry fusion proteins co-expressed in living interphase HEp-2 or U2OS cells; spots in the nucleoplasm free of kinetochores, focal volume bleached before; 37°C; 488 and 561 nm; corrected values are the measured ones times about two.
mCherry-(s)-CENP-I (human), sequence (Q92674 whole entry, the tested form may be a part): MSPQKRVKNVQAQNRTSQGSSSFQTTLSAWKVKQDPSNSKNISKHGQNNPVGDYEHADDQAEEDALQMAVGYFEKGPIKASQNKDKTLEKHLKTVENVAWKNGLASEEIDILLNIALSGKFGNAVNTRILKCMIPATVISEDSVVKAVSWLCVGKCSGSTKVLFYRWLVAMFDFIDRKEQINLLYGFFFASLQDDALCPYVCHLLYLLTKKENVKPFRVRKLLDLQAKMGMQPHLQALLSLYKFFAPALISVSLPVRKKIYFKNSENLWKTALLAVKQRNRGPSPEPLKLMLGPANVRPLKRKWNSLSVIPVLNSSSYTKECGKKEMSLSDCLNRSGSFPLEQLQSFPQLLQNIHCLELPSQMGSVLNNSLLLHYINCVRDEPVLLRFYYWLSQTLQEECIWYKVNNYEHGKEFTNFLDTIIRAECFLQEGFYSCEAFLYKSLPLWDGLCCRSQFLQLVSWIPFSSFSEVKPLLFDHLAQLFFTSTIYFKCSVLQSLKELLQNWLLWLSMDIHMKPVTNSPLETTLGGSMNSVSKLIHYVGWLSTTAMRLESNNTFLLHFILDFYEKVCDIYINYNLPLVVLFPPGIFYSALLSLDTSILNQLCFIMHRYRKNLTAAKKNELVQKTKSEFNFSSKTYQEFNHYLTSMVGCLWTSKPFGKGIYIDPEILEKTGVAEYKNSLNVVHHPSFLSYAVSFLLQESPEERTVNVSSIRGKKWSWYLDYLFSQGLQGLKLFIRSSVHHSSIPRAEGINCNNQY

Assay [4] has as its target mCherry-(s)-CENP-K (human) (UniProt Q9BS16). The assay is described as above.
Assay [5] deals with CENP-I-(s)-mCherry (human) (UniProt Q92674). Described as above.
CENP-I-(s)-mCherry (human), sequence (Q92674 whole entry): as the sequence (Q92674 whole entry, the tested form may be a part) above

mCherry-(s)-CENP-K (human), sequence (Q9BS16 whole entry): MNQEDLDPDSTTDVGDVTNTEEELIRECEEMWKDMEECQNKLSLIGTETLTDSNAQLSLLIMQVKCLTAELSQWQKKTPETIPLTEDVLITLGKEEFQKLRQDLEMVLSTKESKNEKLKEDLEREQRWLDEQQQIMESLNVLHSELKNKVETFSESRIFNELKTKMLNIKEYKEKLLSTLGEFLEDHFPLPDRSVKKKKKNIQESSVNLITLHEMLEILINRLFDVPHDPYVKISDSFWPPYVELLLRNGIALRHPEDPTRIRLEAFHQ
EGFP-(l)-CENP-M, sequence (Q9NSP4 whole entry): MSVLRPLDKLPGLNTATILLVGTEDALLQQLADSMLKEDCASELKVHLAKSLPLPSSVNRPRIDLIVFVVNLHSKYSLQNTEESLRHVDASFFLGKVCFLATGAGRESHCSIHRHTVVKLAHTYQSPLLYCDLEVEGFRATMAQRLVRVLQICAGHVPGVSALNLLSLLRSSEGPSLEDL
mCherry-(s)-CENP-N (human), sequence (Q96H22 whole entry, the tested form may be a part): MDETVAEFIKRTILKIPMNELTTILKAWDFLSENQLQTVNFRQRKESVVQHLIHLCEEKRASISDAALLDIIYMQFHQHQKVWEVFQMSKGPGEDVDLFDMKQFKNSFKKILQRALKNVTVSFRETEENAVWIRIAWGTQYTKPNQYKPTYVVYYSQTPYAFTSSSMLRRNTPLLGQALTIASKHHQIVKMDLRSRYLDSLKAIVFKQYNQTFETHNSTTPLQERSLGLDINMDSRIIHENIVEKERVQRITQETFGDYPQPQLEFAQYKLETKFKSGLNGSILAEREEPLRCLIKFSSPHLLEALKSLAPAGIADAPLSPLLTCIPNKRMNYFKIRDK
Spc24/Spc25 137-197+129-224 (Homo sapiens), sequence (Q8NBT2 whole entry, chain 1 of 2, the tested form may be a part): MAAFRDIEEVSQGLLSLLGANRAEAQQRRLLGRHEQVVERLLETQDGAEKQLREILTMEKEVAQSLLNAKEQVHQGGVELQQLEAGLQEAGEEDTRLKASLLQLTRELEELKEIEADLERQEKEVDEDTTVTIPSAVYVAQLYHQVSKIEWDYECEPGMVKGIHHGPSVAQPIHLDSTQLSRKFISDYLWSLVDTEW
Spc24/Spc25 137-197+129-224 (Homo sapiens), sequence (Q9HBM1 whole entry, chain 2 of 2, further chain, the tested form may be a part): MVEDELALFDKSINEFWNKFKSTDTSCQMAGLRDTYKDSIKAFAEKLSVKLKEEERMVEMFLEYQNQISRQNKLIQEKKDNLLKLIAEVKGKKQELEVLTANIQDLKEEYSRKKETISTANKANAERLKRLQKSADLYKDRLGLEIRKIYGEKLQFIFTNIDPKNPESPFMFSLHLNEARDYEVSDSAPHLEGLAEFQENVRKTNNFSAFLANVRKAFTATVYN
EGFP-(l)-CENP-L, sequence (Q8N0S6 whole entry): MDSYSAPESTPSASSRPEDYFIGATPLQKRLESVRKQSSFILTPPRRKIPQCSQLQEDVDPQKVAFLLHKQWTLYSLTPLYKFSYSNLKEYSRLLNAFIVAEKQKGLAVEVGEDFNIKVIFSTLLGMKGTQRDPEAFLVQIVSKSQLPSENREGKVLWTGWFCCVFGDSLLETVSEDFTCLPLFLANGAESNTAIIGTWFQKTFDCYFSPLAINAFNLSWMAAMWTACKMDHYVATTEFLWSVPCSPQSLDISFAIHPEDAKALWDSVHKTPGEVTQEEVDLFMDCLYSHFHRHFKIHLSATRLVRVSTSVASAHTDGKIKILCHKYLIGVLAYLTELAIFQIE
CENP-T 76-106, sequence (Q96BT3 76-106): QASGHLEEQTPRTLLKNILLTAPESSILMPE

As to “CENP-K-(s)-EGFP (from UniProt Q9BS16 1-269) (natural protein)”, the cross-correlation, measured (%) in assay [1] was 26%.

Usually Kd stands for the free concentration of one partner at which half of the binding sites on the other are occupied at equilibrium, for simple one-to-one binding. For CENP-T 76-106 (from UniProt Q96BT3), in assay [2], the Kd was 645 nM. The substance “EGFP-(l)-CENP-L (from UniProt Q8N0S6 1-344) (natural protein; other documents disagree on this pair)” had a cross-correlation, measured (%) in assay [1] of 23%.

The substance “EGFP-(l)-CENP-M (from UniProt Q9NSP4 1-180) (natural protein)” came in with a cross-correlation, measured (%) in assay [3] of 24%. Besides, in assay [4], the co-migration in one cell (%) turned out to be 49%; the cross-correlation, corrected (%) fell in the range of 56 to 92%; the cross-correlation, measured (%) came out at 37%. As for “EGFP-(s)-CENP-H (from UniProt Q9H3R5 1-247) (natural protein)”, in assay [5], the cross-correlation, measured (%) was determined as 22%. As to “EGFP-(s)-CENP-K (from UniProt Q9BS16 1-269) (natural protein)”, in assay [3], the cross-correlation, measured (%) is 20%.
